Laboratory results from PMC4459029, “Effects of receptor tyrosine kinase inhibitors on VEGF165a- and VEGF165b-stimulated gene transcription in HEK-293 cells expressing human VEGFR2” (British Journal of Pharmacology, 2015).
“And” between values parts separate entries of the source, which are not always exact repeats. Identical values can stand only once.

B1: VEGF165b: VEGF-A exon 8 splice variant, lower-efficacy partial agonist at VEGFR2, from R&D systems (protein)
chain: APMAEGGGQNHHEVVKFMDVYQRSYCHPIETLVDIFQEYPDEIEYIFKPSCVPLMRCGGCCNDEGLECVPTEESNITMQIMRIKPHQGQHIGEMSFLQHNKCECRPKKDRARQENPCGPCSERRKHLFVQDPQTCKCSCKNTDSRCKARQLELNERTCRSLTRKD
modifications: disulfide-linked homodimer; natural exon 8b splice isoform (VEGF165b); limits are the mature chain after removal of the 26-residue signal pep

Columns and labels:
[1] = system: basal NFAT-luciferase activity; experiment: basal NFAT-luciferase production in VEGFR2 NFAT cells; assay type: cell-based, human; conditions: no VEGF; P < 0.05 one way ANOVA
Text: HEK-293 cells expressing the human VEGFR2 and an NFAT reporter gene were provided by Promega Corporation. The NFAT reporter gene contained an NFAT response element linked via a minimal promoter to the firefly luciferase gene luc2P containing a human sequence enriched in proline (P), glutamic acid (E), serine (S) and threonine (T) protein destabilization sequence (Voon et al., [2005]). VEGFR2 NFAT cells were maintained in DMEM media supplemented with 10% FCS and 0.5% G418 in a humidified 5% CO2/95% air atmosphere at 37°C.
VEGFR2 NFAT cells were seeded in a T75 flask at 5 × 10^6 cells per flask using DMEM +10%FCS and incubated at 37°C in a 5% CO2/95% air atmosphere for 3 days until the cells were 100% confluent. On the fourth day, cells were washed with PBS and detached using 3 mL Versene® (ETDA 0.02% in PBS). Once cells had detached, 6 mL of DMEM +0.1%BSA was added and the cells were counted using a haemocytometer. […] After the 5 h incubation, 100 μL ONE-Glo Luciferase Assay reagent was added to each well and luminescence was measured according to the manufacturer's instructions on a Topcount platereader (Perkin Elmer, Llantrisant, UK).

human VEGFR2 = target: T1, human VEGFR2 (Homo sapiens, UniProt P35968); experiment: VEGFR2-stimulated NFAT-luciferase reporter gene activity in HEK-293 cells; assay type: cell-based
T1 construct: host or cells: HEK-293
T1 sequence (P35968 20-1356): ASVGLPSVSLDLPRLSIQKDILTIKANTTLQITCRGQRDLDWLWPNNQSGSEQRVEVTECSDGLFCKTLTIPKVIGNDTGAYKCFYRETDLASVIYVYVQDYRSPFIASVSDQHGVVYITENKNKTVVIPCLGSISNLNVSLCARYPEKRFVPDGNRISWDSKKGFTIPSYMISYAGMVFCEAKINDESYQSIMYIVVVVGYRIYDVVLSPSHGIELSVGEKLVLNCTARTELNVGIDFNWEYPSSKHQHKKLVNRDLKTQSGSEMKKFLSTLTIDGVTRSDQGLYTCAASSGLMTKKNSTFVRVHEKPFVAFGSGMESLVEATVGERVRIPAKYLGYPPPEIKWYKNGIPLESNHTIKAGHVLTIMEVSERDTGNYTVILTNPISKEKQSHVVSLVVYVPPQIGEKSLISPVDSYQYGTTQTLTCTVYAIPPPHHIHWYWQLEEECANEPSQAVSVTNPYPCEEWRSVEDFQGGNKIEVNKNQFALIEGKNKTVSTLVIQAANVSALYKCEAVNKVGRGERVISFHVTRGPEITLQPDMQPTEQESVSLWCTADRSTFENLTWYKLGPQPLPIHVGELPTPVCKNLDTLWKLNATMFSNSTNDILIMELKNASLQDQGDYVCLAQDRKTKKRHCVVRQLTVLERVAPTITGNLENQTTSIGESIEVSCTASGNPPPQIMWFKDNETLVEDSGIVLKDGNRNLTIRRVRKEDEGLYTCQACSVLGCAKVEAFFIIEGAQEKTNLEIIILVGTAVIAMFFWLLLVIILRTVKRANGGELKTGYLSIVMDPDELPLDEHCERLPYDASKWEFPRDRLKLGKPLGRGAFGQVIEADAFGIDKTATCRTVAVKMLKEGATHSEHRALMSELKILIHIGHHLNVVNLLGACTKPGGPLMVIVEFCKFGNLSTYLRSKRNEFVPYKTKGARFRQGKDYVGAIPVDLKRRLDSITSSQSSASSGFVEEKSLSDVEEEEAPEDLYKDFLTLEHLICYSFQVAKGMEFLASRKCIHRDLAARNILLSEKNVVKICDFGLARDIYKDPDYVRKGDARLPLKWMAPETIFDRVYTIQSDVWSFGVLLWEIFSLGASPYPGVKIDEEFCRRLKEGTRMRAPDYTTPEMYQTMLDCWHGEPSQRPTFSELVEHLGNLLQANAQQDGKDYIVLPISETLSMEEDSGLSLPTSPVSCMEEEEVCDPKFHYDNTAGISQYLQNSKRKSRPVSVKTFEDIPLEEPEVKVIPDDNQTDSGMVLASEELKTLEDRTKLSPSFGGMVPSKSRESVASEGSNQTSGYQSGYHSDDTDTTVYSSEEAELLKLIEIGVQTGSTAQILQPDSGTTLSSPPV
Method: HEK-293 cells expressing the human VEGFR2 and an NFAT reporter gene were provided by Promega Corporation.
On the fourth day, cells were washed with PBS and detached using 3 mL Versene® (ETDA 0.02% in PBS). Once cells had detached, 6 mL of DMEM +0.1%BSA was added and the cells were counted using a haemocytometer. Cells were centrifuged at 200× g for 5 min, resuspended in DMEM +0.1%BSA and seeded at a density of 4 × 10^4 cells per well in 80 μL DMEM +0.1%BSA in white-sided, clear flat-bottomed 96-well plates (Greiner, Stonehouse, UK), which had been coated with 0.01 mg·mL^−1 poly-D-lysine in PBS for 30 min and washed with DMEM. […] After the 5 h incubation, 100 μL ONE-Glo Luciferase Assay reagent was added to each well and luminescence was measured according to the manufacturer's instructions on a Topcount platereader (Perkin Elmer, Llantrisant, UK).
All data were fitted using non-linear regression in Prism 6 (GraphPad Software, San Diego, CA, USA).
A comparison of the extra sum of squares that resulted from the analysis with separate EC50 or Emax values (over that with one of the parameters shared) using the F-test (Prism 6) then allowed for statistical analysis of the difference between EC50 or Emax values. […]

Row | Molecule | concentration giving significant inhibition of basal NFAT-luciferase response [1] | −Log EC50 (human VEGFR2; agonist-stimulated NFAT-luciferase response, 5 h incubation) | pKA at VEGFR2 (operational model) (human VEGFR2; partial agonist fit)
1 | COc1cc2c(Oc3ccc4[nH]c(C)cc4c3F)ncnc2cc1OCCCN1CCCC1 [Cediranib] | above 10 nM | – | –
2 | B1 | – | 9.21 ± 0.08 | 8.83 and 8.8
